Residue numbers refer to the chain shown, from its start.
B1: ATI000934 (designed binder)
chain: MGVSDVPRDLEVVAATPTSLLISWGHYPLHLRYYRITYGETGGNSPVQEFTVPRTKYTATISGLKPGVDYTITVYAVTYYKEADYSQIPISINYRTEIDKPCQ
modifications: pegylated at the C-terminal EIDKPCQ (Cys)
notes: also called ATI 934; not shown: his-tag
B2: ATI001014 (designed binder)
chain: MGVSDVPRDLEVVAATPTSLLISWGHYPLHVRYYRITYGETGGNSPVQEFTVPPRSHTATISGLKPGVDYTITVYAVTYYAQENYKEIPISINYRTGSGC
modifications: pegylated at the C-terminal GSGC linker (Cys)
notes: not shown: his-tag
B3: 1571G04 (designed binder)
chain: MGVSDVPRDLEVVAATPTSLLISWGHYPLHVRYYRITYGETGGNSPVQEFTVPPRSHTATISGLKPGVDYTITVYAVTYYAQENYKEIPISINYRTEIDKPSQHHHHHH
notes: captured by anti-His mAb
B4: 1490B03 (designed binder)
chain: B3 chain with P54S, S56K, H57Y, A81K, Q82E, E83A, K86R
notes: captured by anti-His mAb
B5: 1571G06 (designed binder)
chain: MGVSDVPRDLEVVAATPTSLLISWGHYPLHLRYYRITYGETGGNSPVQEFTVPRTKYTATISGLKPGVDYTITVYAVTYYKEADYSQIPISINYRTEIDKPSQHHHHHH
notes: captured by anti-His mAb
B6: 1572B10 (designed binder)
chain: B5 chain with L29M, L31V, R54V, T55P, K56R, Y57H, K81N
notes: captured by anti-His mAb
B7: 1572C09 (designed binder)
chain: B5 chain with L29M, L31I, R54T, T55P, Y57H, K81N
notes: captured by anti-His mAb
B8: 1572F05 (designed binder)
chain: B5 chain with L31I, T55Q, K81N
notes: captured by anti-His mAb
B9: 1550H05 (designed binder)
chain: B5 chain with L31V, T55Q, K56I, K81N
notes: captured by anti-His mAb
B10: 1572D04 (designed binder)
chain: B3 chain with L29M, S56R, H57Y, A81E, E83P, N84I, K86A, E87T
notes: captured by anti-His mAb
B11: 1572G06 (designed binder)
chain: B3 chain with P54R, R55Y, S56K, H57Y
notes: captured by anti-His mAb
B12: 1571H03 (designed binder)
chain: B3 chain with P54N, S56V, H57Y, N84E, K86H, E87I
notes: captured by anti-His mAb
B13: 1490H05 (designed binder)
chain: B3 chain with P54M, S56Q
notes: captured by anti-His mAb
B14: 1572H05 (designed binder)
chain: B5 chain with L31I, T55S, K81E, E82Q, A83V, D84E, S86R, Q87E
notes: captured by anti-His mAb
B15: 1571F10 (designed binder)
chain: B3 chain with V31I, P54S, S56Y, A81E, E83V, N84E, K86R
notes: captured by anti-His mAb
B16: 1550 E06 (designed binder)
chain: B3 chain with L29M, R55P, S56R
notes: captured by anti-His mAb
B17: SABA4.1 (designed binder)
chain: MGVSDVPRDLEMVAATPTSLLISWEDDSYYSRYYRITYGETGGNSPVQEFTVPSDLYTATISGLKPGVDYTITVYAVTYDVTDLIMHEPISINYRTEIDKPSQHHHHHH
B18: SABA1.1 (designed binder)
chain: MGVSDVPRDLEVVAATPTSLLISWHSYYEQNSYYRITYGETGGNSPVQEFTVPYSQTTATISGLKPGVDYTITVYAVYGSKYYYPISINYRTEIDKPSQHHHHHH
B19: SABA3.1 (designed binder)
chain: MGVSDVPRDLEVVAATPTSLLISWSNDGPGLSYYRITYGETGGNSPVQEFTVPSSQTTATISGLKPGVDYTITVYAVSYYTKKAYSAGPISINYRTEIDKPSQHHHHHH
B20: SABA2.1 (designed binder)
chain: MGVSDVPRDLEVVAATPTSLLISWPKYDKTGHYYRITYGETGGNSPVQEFTVPTRQTTATISGLKPGVDYTITVYAVSKDDYYPHEHRPISINYRTEIDKPSQHHHHHH

Target: T1, human IL-23 (human, UniProt Q9NPF7 20-189; P29460 23-328)
T1 construct: also called hIL-23; human recombinant IL-23
T1 sequence (looked up) 1: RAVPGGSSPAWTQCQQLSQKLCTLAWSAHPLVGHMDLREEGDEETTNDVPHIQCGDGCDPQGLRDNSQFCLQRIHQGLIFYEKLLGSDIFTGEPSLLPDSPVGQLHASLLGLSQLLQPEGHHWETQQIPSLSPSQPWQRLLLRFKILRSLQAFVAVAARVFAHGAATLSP
T1 sequence (looked up) 2: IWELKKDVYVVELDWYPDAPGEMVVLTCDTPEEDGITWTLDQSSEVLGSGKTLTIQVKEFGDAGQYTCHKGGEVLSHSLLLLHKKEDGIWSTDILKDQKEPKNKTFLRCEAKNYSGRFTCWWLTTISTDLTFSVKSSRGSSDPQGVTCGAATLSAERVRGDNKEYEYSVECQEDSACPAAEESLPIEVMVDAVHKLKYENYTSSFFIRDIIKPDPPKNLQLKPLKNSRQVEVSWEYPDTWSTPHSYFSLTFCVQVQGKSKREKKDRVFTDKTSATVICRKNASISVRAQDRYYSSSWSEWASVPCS
Experiment: SPR (ProteOn XPR), human IL-23 directly immobilized, 25 C
Protocol: The binding characteristics were characterized by Surface Plasmon Resonance (SPR). Human IL-23 was immobilized at two to four levels in one dimension of a ProteOn XPR (Bio-Rad) chip surfaces and exposed to 6 different concentrations of anti-IL-23 adnectins in the other dimension of the same SPR chip surface. This allowed kinetic determination in the absence of regeneration. Duplicate chips were used for kinetic determinations at 25° C. and 37° C. Evaluation of the kinetic parameters was performed using the Langmuir interaction model and constant parameter fitting with the ProteOn Manager software.
Even at 37° C. the off rates were close to the limit of detection for SPR technologies so it is possible that the reported dissociation constant measurements are under-estimates.

Kd	koff	kon	Binder
1.9 nM	1.8e-05 s⁻¹	9400 M⁻¹ s⁻¹	B1
1.8 nM	1.7e-05 s⁻¹	9400 M⁻¹ s⁻¹	B2
0.2 nM	1.2e-05 s⁻¹	57000 M⁻¹ s⁻¹	B3

Target: T1, human IL-23
Experiment: cell-based or functional assay

Kit 225 pSTAT3 IC50 (nM)	Binder
0.3 nM	B4
0.3 nM	B5
0.8 nM	B6
0.5 nM	B7
3 nM	B8
1.5 nM	B9
4 nM	B10
0.05 nM	B11
0.4 nM	B12
0.4 nM	B13
0.01 nM	B14
0.1 nM	B15
0.1 nM	B3
0.4 nM	B16

Target: T2, murine serum albumin (mouse, UniProt P07724 25-608)
T2 construct: also called MuSA; mouse serum albumin
Experiment: SPR, albumin captured on CM5 chip
Protocol: (§1) The kinetics of selected SABA clones purified from HTPP and/or midscaled material were determined by capturing the respective serum albumin (HSA/RhSA/MuSA) on the surface of a Biasensor CM5 chip and flowing a concentration series of SABAs over both the reference flow cell and the captured albumins. In addition, binding to albumin was carried out under various pH conditions ranging from pH 5.5 to pH 7.4. […] SABA1.1 fits biochemical criteria for pH resistance and affinity/kinetics down to pH 5.5.

binding result	Binder
no binding	B17
no binding	B18
no binding	B19
no binding	B20

Target: T3, human serum albumin (human, UniProt P02768 25-609)
T3 construct: also called HSA
T3 sequence (P02768 25-609 limits assumed): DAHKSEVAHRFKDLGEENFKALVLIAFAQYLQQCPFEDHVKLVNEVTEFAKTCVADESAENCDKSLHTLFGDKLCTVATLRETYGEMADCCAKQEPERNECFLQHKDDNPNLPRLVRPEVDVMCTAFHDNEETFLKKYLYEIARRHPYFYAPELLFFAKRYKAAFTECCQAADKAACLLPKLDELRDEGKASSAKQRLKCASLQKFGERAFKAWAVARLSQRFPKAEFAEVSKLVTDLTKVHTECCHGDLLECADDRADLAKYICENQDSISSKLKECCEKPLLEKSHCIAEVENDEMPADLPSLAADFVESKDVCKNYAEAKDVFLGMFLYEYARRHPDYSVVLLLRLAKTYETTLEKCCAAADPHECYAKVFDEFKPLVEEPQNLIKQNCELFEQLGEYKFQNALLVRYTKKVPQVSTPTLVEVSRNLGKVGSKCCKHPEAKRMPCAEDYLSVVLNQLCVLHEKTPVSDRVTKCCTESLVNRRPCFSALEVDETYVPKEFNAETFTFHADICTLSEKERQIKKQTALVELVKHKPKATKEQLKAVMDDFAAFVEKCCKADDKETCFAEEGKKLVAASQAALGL
Experiment: SPR (Biacore), albumin captured on CM5 chip, SABA flowed
Protocol: as §1, with “5.5. […]” for “5.5.”

Kd	koff	Binder
412 nM	0.000782 s⁻¹	B17
47.2 nM	0.000457 s⁻¹	B18
863 nM	0.0682 s⁻¹	B19
33.8 nM	0.000171 s⁻¹	B20

Target: T4, rhesus serum albumin (rhesus, UniProt Q28522 17-600)
T4 construct: also called RhSA
T4 sequence (Q28522 17-600 limits assumed): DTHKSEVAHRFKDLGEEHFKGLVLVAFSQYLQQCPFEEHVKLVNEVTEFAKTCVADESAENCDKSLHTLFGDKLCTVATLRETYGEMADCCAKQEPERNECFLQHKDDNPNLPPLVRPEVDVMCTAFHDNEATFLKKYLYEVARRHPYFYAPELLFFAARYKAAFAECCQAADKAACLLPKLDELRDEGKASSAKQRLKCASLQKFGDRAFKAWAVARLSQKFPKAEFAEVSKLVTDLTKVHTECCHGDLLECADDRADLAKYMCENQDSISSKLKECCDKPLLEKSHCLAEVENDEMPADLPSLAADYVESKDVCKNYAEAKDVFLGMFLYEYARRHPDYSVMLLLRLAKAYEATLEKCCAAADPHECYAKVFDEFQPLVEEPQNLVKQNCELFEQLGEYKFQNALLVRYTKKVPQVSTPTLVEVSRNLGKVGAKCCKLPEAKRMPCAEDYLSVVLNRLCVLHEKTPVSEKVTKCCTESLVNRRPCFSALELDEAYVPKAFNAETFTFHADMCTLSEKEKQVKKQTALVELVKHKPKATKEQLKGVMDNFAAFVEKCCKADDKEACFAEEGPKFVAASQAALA
Experiment: as above
Protocol: as §1, with “5.5. […]” for “5.5.”

Kd	koff	Binder
> 1000 nM	0.00383 s⁻¹	B17
778 nM	0.00545 s⁻¹	B18
431 nM	0.0337 s⁻¹	B19
63.6 nM	0.000442 s⁻¹	B20

Target: T1, human IL-23
Experiment: SPR, Adnectin captured by anti-His mAb, IL-23 injected
Protocol: All surface plasmon experiments were conducted in HBS-EP (10 mM Hepes 150 mM NaCl 3 mM EDTA 0.05% Surfactant P20) at 25° C. IL-23 was injected over anti-His mAb captured Adnectins for 2 minutes followed by a 10 minute dissociation phase. Evaluation of the binding specificity was completed using Biacore T100 evaluation software. Additional detailed methods are described in Example 4.

kon	Kd	koff	Binder
153000 M⁻¹ s⁻¹	–	–	B4
131000 M⁻¹ s⁻¹	1.81 nM	0.000238 s⁻¹	B5
65300 M⁻¹ s⁻¹	–	–	B6
60700 M⁻¹ s⁻¹	–	–	B7
132000 M⁻¹ s⁻¹	2.2 nM	0.000285 s⁻¹	B8
65200 M⁻¹ s⁻¹	3.3 nM	0.000212 s⁻¹	B9
103000 M⁻¹ s⁻¹	2.9 nM	0.000294 s⁻¹	B10
105000 M⁻¹ s⁻¹	–	–	B11
118000 M⁻¹ s⁻¹	3.4 nM	0.000395 s⁻¹	B12
156000 M⁻¹ s⁻¹	2.1 nM	0.000322 s⁻¹	B13
375000 M⁻¹ s⁻¹	0.61 nM	0.00023 s⁻¹	B14
268000 M⁻¹ s⁻¹	–	–	B15
170000 M⁻¹ s⁻¹	2.1 nM	0.000361 s⁻¹	B3
55400 M⁻¹ s⁻¹	2.1 nM	0.000116 s⁻¹	B16

Target: T1, human IL-23
Experiment: cell-based or functional assay
Remark: another data set of the same source

IL-17 EC50	IL-22 EC50	PBMNC pSTAT3 IC50 (nM)	Binder
1.4 nM	1.7 nM	0.09 nM	B4
3.5 nM	5.1 nM	0.93 nM	B5
7.9 nM	5.3 nM	–	B7
1.6 nM	1.9 nM	0.21 nM	B11
2.9 nM	2.3 nM	–	B12
1.8 nM	2.9 nM	–	B13
1.4 nM	1.3 nM	0.23 nM	B3
1.5 nM	2.1 nM	1.15 nM	B16

Source: patent US20130012436A1 (Bristol-Myers Squibb, published 2013)
